# Test results reported in paper PMC5692578 (Proceedings of the National Academy of Sciences of the …, 2017).
# T1: Mcm4 (S. cerevisiae, UniProt P30665 1-933)
# T1 sequence: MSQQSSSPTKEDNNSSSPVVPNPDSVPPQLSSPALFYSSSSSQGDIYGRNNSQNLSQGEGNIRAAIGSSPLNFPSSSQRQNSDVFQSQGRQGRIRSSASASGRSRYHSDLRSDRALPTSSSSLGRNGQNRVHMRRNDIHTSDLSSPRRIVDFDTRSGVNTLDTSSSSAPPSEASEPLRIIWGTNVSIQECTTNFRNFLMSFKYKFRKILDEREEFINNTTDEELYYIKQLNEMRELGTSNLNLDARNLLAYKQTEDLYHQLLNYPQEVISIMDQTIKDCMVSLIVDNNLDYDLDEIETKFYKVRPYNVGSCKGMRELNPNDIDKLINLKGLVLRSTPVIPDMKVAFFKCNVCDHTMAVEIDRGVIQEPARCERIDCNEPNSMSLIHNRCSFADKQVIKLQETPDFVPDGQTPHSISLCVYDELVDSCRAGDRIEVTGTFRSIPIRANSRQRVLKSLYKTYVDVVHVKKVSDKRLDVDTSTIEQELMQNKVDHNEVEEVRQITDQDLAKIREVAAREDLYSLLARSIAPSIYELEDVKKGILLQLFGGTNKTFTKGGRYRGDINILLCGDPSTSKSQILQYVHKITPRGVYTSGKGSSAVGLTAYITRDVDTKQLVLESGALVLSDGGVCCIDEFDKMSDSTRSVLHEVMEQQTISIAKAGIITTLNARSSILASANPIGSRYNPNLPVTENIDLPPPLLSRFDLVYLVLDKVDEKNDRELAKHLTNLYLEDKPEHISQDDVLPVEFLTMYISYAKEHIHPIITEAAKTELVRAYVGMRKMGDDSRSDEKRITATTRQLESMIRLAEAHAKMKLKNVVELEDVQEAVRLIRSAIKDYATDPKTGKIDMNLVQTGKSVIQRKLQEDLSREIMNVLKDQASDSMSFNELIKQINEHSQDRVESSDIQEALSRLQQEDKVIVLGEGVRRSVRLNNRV
# B1: Mcm7 (natural protein)
# chain: MSAALPSIQLPVDYNNLFNEITDFLVTFKQDTLSSDATRNENEDENLDAENIEQHLLEKGPKYMAMLQKVANRELNSVIIDLDDILQYQNEKFLQGTQADDLVSAIQQNANHFTELFCRAIDNNMPLPTKEIDYKDDVLDVILNQRRLRNERMLSDRTNEIRSENLMDTTMDPPSSMNDALREVVEDETELFPPNLTRRYFLYFKPLSQNCARRYRKKAISSKPLSVRQIKGDFLGQLITVRGIITRVSDVKPAVEVIAYTCDQCGYEVFQEVNSRTFTPLSECTSEECSQNQTKGQLFMSTRASKFSAFQECKIQELSQQVPVGHIPRSLNIHVNGTLVRSLSPGDIVDVTGIFLPAPYTGFKALKAGLLTETYLEAQFVRQHKKKFASFSLTSDVEERVMELITSGDVYNRLAKSIAPEIYGNLDVKKALLLLLVGGVDKRVGDGMKIRGDINVCLMGDPGVAKSQLLKAICKISPRGVYTTGKGSSGVGLTAAVMKDPVTDEMILEGGALVLADNGICCIDEFDKMDESDRTAIHEVMEQQTISISKAGINTTLNARTSILAAANPLYGRYNPRLSPLDNINLPAALLSRFDILFLMLDIPSRDDDEKLAEHVTYVHMHNKQPDLDFTPVEPSKMREYIAYAKTKRPVMSEAVNDYVVQAYIRLRQDSKREMDSKFSFGQATPRTLLGIIRLSQALAKLRLADMVDIDDVEEALRLVRVSKESLYQETNKSKEDESPTTKIFTIIKKMLQETGKNTLSYENIVKTVRLRGFTMLQLSNCIQEYSYLNVWHLINEGNTLKFVDDGTMDTDQEDSLVSTPKLAPQTTASANVSAQDSDIDLQDA
# Legend:
# Test in all cases: cryo-EM structure
# Mcm3 = Mcm3 (S. cerevisiae, UniProt P24279 1-971)
# Chain of Mcm3 (P24279 whole entry): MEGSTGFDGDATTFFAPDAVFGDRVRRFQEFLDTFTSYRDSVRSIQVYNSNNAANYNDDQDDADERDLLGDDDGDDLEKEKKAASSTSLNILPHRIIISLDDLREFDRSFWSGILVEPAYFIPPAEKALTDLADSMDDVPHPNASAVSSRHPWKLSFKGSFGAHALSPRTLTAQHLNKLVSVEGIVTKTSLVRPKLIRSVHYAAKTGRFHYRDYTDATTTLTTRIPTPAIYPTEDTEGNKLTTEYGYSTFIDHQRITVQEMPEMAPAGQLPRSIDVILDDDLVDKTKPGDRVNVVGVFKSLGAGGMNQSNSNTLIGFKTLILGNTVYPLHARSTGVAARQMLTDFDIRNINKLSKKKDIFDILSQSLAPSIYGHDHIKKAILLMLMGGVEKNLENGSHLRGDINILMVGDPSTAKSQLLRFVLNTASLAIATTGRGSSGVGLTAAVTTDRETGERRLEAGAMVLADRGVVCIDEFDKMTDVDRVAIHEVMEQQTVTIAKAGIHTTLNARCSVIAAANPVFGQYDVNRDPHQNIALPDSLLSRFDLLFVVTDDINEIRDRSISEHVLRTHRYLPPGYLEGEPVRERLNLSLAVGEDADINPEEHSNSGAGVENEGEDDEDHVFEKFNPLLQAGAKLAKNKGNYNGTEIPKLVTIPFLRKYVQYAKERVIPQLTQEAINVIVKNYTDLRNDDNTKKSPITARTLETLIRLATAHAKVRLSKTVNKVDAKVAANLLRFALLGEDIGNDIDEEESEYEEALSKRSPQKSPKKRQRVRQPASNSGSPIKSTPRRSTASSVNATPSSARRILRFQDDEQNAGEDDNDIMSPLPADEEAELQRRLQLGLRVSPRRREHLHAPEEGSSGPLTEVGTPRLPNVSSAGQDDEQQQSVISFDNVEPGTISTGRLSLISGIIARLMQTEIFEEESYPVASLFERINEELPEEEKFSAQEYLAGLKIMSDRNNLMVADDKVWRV
# Mcm4 = molecular target: T1, Mcm4
# Mcm7 = molecular target: B1
Binder,binding result (Mcm3),binding result (Mcm4),binding result (Mcm7)
B1,binds,binds,
Mcm5 (natural protein) MSFDRPEIYSAPVLQGESPNDDDNTEIIKSFKNFILEFRLDSQFIYRDQLRNNILVKNYSLTVNMEHLIGYNEDIYKKLSDEPSDIIPLFETAITQVAKRISILSRAQSANNNDKDPENTSMDTDSLLLNSLPTFQLILNSNANQIPLRDLDSEHVSKIVRLSGIIISTSVLSSRATYLSIMCRNCRHTTSITINNFNSITGNTVSLPRSCLSTIESESSMANESNIGDESTKKNCGPDPYIIIHESSKFIDQQFLKLQEIPELVPVGEMPRNLTMTCDRYLTNKVIPGTRVTIVGIYSIYNSKNGAGSGRSGGGNGGSGVAIRTPYIKILGIQSDVETSSIWNSVTMFTEEEEEEFLQLSRNPKLYEILTNSIAPSIFGNEDIKKAIVCLLMGGSKKILPDGMRLRGDINVLLLGDPGTAKSQLLKFVEKVSPIAVYTSGKGSSAAGLTASVQRDPMTREFYLEGGAMVLADGGVVCIDEFDKMRDEDRVAIHEAMEQQTISIAKAGITTVLNSRTSVLAAANPIYGRYDDLKSPGDNIDFQTTILSRFDMIFIVKDDHNEERDISIANHVINIHTGNANAMQNQQEENGSEISIEKMKRYITYCRLKCAPRLSPQAAEKLSSNFVTIRKQLLINELESTERSSIPITIRQLEAIIRITESLAKLELSPIAQERHVDEAIRLFQASTMDAASQDPIGGLNQASGTSLSEIRRFEQELKRRLPIGWSTSYQTLRREFVDTHRFSQLALDKALYALEKHETIQLRHQGQNIYRSGV,,,binds
